Results: article PMC2756588
One block for each binder: values may come before it.

What was measured:
Assay in all cases: SPOT array
[1] = target: Bem1-2, P29366; conditions: median of control spots 4347
[2] = target: T1, Nbp2, Q12163; conditions: median of control spots 357
T1 sequence (Q12163 103-180, looked up): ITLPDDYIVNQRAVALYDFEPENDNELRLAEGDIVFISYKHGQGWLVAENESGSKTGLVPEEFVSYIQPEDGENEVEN

[3] = target: T2, Lsb4, P32793; conditions: median of control spots 397
T2 sequence (P32793 402-468, looked up): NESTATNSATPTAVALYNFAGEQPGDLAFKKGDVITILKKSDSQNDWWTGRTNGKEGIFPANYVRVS

[4] = target: Myo3, P36006; conditions: median of control spots 468
[5] = target: Bem1-1, P29366; conditions: median of control spots 4282
[6] = target: T3, Bbc1, P47068; conditions: median of control spots 796
T3 sequence (P47068 1-78, looked up): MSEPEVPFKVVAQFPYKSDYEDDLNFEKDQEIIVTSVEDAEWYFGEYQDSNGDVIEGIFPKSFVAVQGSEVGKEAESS

[7] = target: T4, Lsb1, P53281; conditions: median of control spots 388
T4 sequence (P53281 45-122, looked up): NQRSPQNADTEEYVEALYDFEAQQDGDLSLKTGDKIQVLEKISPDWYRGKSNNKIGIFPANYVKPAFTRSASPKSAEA

[8] = target: T5, Bud14, P27637; conditions: median of control spots 956
T5 sequence (P27637 247-328, looked up): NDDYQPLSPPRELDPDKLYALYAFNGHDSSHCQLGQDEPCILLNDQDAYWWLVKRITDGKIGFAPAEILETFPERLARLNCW

[9] = target: T6, Cyk3, Q07533; conditions: median of control spots 1451
T6 sequence (Q07533 1-83, looked up): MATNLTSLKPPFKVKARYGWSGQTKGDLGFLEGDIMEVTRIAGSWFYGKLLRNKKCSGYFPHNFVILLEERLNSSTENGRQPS

[10] = target: T7, Bzz1-2, P38822; conditions: median of control spots 4538
T7 sequence (P38822 568-633, looked up): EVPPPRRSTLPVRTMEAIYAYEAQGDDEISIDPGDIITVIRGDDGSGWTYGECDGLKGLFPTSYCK

[11] = target: Sho1, P40073; conditions: median of control spots 1148
[12] = target: T8, Hse1, P38753; conditions: median of control spots 1727
T8 sequence (P38753 208-285, looked up): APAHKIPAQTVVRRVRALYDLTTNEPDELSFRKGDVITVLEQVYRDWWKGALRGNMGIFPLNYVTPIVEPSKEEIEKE

[13] = target: T9, Myo5, Q04439; conditions: median of control spots 471
T9 sequence (Q04439 1072-1160, looked up): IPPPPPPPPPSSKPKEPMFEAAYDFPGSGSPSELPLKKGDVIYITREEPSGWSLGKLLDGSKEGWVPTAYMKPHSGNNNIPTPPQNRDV

[14] = target: T10, Cdc25, P04821; conditions: median of control spots 969
T10 sequence (P04821 50-136, looked up): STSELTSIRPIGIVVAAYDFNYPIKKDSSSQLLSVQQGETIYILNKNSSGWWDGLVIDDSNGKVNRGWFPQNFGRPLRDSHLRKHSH

[15] = target: T11, Pex13, P80667; conditions: median of control spots 1341
T11 sequence (P80667 295-386, looked up): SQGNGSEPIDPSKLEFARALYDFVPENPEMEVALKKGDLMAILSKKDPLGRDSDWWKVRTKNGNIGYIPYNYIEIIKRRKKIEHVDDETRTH

[16] = target: Rvs167, P39743; conditions: median of control spots 2707
[17] = target: T12, Pin3, Q06449; conditions: median of control spots 2171
T12 sequence (Q06449 53-122, looked up): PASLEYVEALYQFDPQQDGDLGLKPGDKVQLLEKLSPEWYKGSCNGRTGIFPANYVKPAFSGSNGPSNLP

[18] = target: GST; conditions: median of control spots 978
[19] = target: T13, Boi1, P38041; conditions: median of control spots 1162
T13 sequence (P38041 1-86, looked up): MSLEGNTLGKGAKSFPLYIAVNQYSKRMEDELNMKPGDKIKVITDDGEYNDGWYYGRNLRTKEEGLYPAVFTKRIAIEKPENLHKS

[20] = target: T14, Lsb3, P43603; conditions: median of control spots 406
T14 sequence (P43603 385-451, looked up): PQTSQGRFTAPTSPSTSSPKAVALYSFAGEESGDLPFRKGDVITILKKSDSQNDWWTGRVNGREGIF

[21] = target: T15, Abp1, P15891; conditions: median of control spots 935
T15 sequence (P15891 535-592, looked up): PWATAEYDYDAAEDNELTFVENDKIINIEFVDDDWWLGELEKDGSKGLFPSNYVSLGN

[22] = target: T16, Sla1-2, P32790; conditions: median of control spots 712
T16 sequence (P32790 60-140, looked up): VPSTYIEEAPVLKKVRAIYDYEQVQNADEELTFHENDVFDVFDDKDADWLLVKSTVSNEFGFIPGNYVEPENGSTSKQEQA

[23] = target: T17, Bzz1-1, P38822; conditions: median of control spots 4446
T17 sequence (P38822 478-572, looked up): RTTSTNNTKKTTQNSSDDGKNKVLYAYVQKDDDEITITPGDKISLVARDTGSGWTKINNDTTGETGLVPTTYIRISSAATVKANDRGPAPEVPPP

[24] = target: T18, Sla1-3, P32790; conditions: median of control spots 5475
T18 sequence (P32790 344-424, looked up): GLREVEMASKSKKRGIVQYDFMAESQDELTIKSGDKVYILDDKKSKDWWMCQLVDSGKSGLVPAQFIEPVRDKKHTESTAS

[25] = target: T19, Boi2, P39969; conditions: median of control spots 1161
T19 sequence (P39969 32-116, looked up): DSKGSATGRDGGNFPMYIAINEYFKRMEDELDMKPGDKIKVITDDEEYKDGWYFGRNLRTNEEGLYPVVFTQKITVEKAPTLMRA

[26] = target: T20, Fus1, P11710; conditions: median of control spots 1200
T20 sequence (P11710 432-512, looked up): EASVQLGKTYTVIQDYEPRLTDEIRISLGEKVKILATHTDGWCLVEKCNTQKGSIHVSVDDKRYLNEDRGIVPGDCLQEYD

[27] = target: T21, Hof1, Q05080; conditions: median of control spots 4086
T21 sequence (Q05080 590-669, looked up): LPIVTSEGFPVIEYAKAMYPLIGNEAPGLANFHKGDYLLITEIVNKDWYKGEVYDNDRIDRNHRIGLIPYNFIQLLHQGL

Chain of Bem1-1, P29366 (P29366 55-141): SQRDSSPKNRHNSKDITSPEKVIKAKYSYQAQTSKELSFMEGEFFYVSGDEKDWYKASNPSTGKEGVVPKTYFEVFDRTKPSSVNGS
Chain of Bem1-2, P29366 (P29366 139-227): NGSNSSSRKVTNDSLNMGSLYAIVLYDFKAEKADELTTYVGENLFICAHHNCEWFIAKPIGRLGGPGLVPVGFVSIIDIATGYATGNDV
Chain of Sho1, P40073 (P40073 287-367): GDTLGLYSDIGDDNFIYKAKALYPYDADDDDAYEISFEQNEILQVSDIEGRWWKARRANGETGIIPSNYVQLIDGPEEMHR
Chain of Rvs167, P39743 (P39743 419-482): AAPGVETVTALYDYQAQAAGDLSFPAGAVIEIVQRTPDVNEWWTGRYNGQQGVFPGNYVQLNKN

SPOT intensity [1]: 7
SPOT intensity [2]: 0
SPOT intensity [3]: 4
SPOT intensity [4]: 7
SPOT intensity [5]: 0
SPOT intensity [6]: 165
SPOT intensity [7]: 0
SPOT intensity [8]: 10
SPOT intensity [9]: 3
SPOT intensity [10]: 35
SPOT intensity [11]: 67
SPOT intensity [12]: 79
SPOT intensity [13]: 1
SPOT intensity [14]: 148
SPOT intensity [15]: 2
SPOT intensity [16]: 0
SPOT intensity [17]: 11
SPOT intensity [18]: 5
SPOT intensity [19]: 7
SPOT intensity [20]: 2
SPOT intensity [21]: 95
SPOT intensity [22]: 7
SPOT intensity [23]: 1
SPOT intensity [24]: 158
SPOT intensity [25]: 8
SPOT intensity [26]: 25
SPOT intensity [27]: 21
Binder: RRASLFPRDPKRLRP

SPOT intensity [1]: 1
SPOT intensity [2]: 13
SPOT intensity [3]: 0
SPOT intensity [4]: 0
SPOT intensity [5]: 0
SPOT intensity [6]: 333
SPOT intensity [7]: 0
SPOT intensity [8]: 21
SPOT intensity [9]: 3
SPOT intensity [10]: 0
SPOT intensity [11]: 26
SPOT intensity [12]: 11
SPOT intensity [13]: 0
SPOT intensity [14]: 67
SPOT intensity [15]: 0
SPOT intensity [16]: 0
SPOT intensity [17]: 4
SPOT intensity [18]: 0
SPOT intensity [19]: 1
SPOT intensity [20]: 0
SPOT intensity [21]: 34
SPOT intensity [22]: 0
SPOT intensity [23]: 1
SPOT intensity [24]: 30
SPOT intensity [25]: 0
SPOT intensity [26]: 52
SPOT intensity [27]: 0
Binder: HKVLRPFLLRRLKKD

SPOT intensity [1]: 0
SPOT intensity [2]: 5
SPOT intensity [3]: 50
SPOT intensity [4]: 54
SPOT intensity [5]: 0
SPOT intensity [6]: 1
SPOT intensity [7]: 67
SPOT intensity [8]: 1
SPOT intensity [9]: 0
SPOT intensity [10]: 0
SPOT intensity [11]: 17
SPOT intensity [12]: 2
SPOT intensity [13]: 48
SPOT intensity [14]: 0
SPOT intensity [15]: 211
SPOT intensity [16]: 1
SPOT intensity [17]: 40
SPOT intensity [18]: 0
SPOT intensity [19]: 0
SPOT intensity [20]: 8
SPOT intensity [21]: 85
SPOT intensity [22]: 5
SPOT intensity [23]: 0
SPOT intensity [24]: 0
SPOT intensity [25]: 0
SPOT intensity [26]: 0
SPOT intensity [27]: 0
Binder: LFMKGTPEFPKSGFS

Further lines, the binder ahead of its results:

Binder: GRSRLFPHSPLGRSS
SPOT intensity [1]: 5
SPOT intensity [2]: 4
SPOT intensity [3]: 0
SPOT intensity [4]: 0
SPOT intensity [5]: 0
SPOT intensity [6]: 12
SPOT intensity [7]: 0
SPOT intensity [8]: 25
SPOT intensity [9]: 2
SPOT intensity [10]: 9
SPOT intensity [11]: 21
SPOT intensity [12]: 9
SPOT intensity [13]: 0
SPOT intensity [14]: 34
SPOT intensity [15]: 4
SPOT intensity [16]: 0
SPOT intensity [17]: 1
SPOT intensity [18]: 0
SPOT intensity [19]: 4
SPOT intensity [20]: 0
SPOT intensity [21]: 34
SPOT intensity [22]: 1
SPOT intensity [23]: 0
SPOT intensity [24]: 8
SPOT intensity [25]: 1
SPOT intensity [26]: 16
SPOT intensity [27]: 14

Binder: VYTRTAFQIPGDDKI
SPOT intensity [1]: 0
SPOT intensity [2]: 0
SPOT intensity [3]: 0
SPOT intensity [4]: 0
SPOT intensity [5]: 0
SPOT intensity [6]: 0
SPOT intensity [7]: 1120
SPOT intensity [8]: 0
SPOT intensity [9]: 0
SPOT intensity [10]: 3
SPOT intensity [11]: 0
SPOT intensity [12]: 0
SPOT intensity [13]: 0
SPOT intensity [14]: 2
SPOT intensity [15]: 0
SPOT intensity [16]: 0
SPOT intensity [17]: 29
SPOT intensity [18]: 3
SPOT intensity [19]: 0
SPOT intensity [20]: 0
SPOT intensity [21]: 0
SPOT intensity [22]: 1
SPOT intensity [23]: 0
SPOT intensity [24]: 0
SPOT intensity [25]: 0
SPOT intensity [26]: 0
SPOT intensity [27]: 0

Binder: YHSRRHPLALGFKYV
SPOT intensity [1]: 10
SPOT intensity [2]: 0
SPOT intensity [3]: 0
SPOT intensity [4]: 1
SPOT intensity [5]: 0
SPOT intensity [6]: 2
SPOT intensity [7]: 0
SPOT intensity [8]: 4
SPOT intensity [9]: 3
SPOT intensity [10]: 0
SPOT intensity [11]: 7
SPOT intensity [12]: 0
SPOT intensity [13]: 0
SPOT intensity [14]: 6
SPOT intensity [15]: 4
SPOT intensity [16]: 0
SPOT intensity [17]: 13
SPOT intensity [18]: 0
SPOT intensity [19]: 0
SPOT intensity [20]: 0
SPOT intensity [21]: 0
SPOT intensity [22]: 0
SPOT intensity [23]: 0
SPOT intensity [24]: 9
SPOT intensity [25]: 0
SPOT intensity [26]: 5
SPOT intensity [27]: 0
